Reference: patent US20040224408A1, “THAP proteins as nuclear receptors for chemokines and roles in transcriptional regulation, cell proliferation and cell differentiation” (published 2004)

T1: Par4 leucine zipper/death domain (Par4DD, amino acids 250-342) (human, UniProt Q96IZ0 248-340)
T1 construct: also called myc-Par4DD; mycPar4DD
T1 chain: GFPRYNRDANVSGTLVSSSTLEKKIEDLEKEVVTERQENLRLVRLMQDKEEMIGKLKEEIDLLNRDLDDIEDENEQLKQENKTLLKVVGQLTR

T2: GST-Par4DD fusion protein (pGEX-2T-Par4DD, Par4 amino acids 250-342) (human, UniProt Q96IZ0 248-340)
T2 construct: Expressed in E. coli DH5alpha and immobilized on glutathione sepharose; not shown: Glutathione S-transferase (GST) encoded by the pGEX-2T prokaryotic expression vector (Amersham Pharmacia Biotech); N-ter
T2 chain: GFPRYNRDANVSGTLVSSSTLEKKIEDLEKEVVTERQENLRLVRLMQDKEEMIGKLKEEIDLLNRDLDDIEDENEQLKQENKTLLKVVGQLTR

T3: THAP1-C1 deletion mutant (amino acids 90-213) (human, UniProt Q9NVV9 90-213)
T3 construct: Tested as a Gal4-BD or Gal4-AD fusion, as in vitro translated 35S-labelled protein and as an EGFP fusion; also called THAP1ΔTHAP; THAP1?THAP
T3 sequence: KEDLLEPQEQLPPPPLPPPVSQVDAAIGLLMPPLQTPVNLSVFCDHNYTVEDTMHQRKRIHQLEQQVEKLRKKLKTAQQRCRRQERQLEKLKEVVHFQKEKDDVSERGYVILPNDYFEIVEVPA

T4: THAP1-N2 deletion mutant (amino acids 1-166) (human, UniProt Q9NVV9 1-166)
T4 construct: Tested as a Gal4-BD or Gal4-AD fusion, as in vitro translated 35S-labelled protein and as an EGFP fusion
T4 sequence: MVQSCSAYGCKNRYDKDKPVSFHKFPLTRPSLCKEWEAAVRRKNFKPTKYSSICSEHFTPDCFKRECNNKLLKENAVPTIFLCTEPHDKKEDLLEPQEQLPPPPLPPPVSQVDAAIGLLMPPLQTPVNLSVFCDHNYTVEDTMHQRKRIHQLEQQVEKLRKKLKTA

T5: THAP1-N3 deletion mutant (amino acids 1-192) (human, UniProt Q9NVV9 1-192)
T5 construct: Tested as a Gal4-BD or Gal4-AD fusion, as in vitro translated 35S-labelled protein and as an EGFP fusion
T5 sequence: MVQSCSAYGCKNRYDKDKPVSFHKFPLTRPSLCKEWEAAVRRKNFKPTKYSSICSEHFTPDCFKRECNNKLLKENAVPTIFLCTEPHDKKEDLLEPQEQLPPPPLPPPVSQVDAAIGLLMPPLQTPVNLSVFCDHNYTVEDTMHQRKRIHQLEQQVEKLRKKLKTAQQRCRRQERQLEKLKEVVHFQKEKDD

T6: human THAP1 (THanatos (death)-Associated Protein-1), full length (human, UniProt Q9NVV9 1-213)
T6 construct: also called hTHAP1; FLJ10477
T6 sequence: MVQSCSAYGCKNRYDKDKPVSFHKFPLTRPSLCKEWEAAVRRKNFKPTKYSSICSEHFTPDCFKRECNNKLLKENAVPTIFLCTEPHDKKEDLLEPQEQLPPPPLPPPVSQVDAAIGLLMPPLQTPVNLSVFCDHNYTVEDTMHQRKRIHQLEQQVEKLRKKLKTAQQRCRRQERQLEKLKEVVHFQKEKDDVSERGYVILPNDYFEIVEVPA


Columns and labels:
[1] = biological target: T1, Par4 leucine zipper/death domain …; test: yeast two-hybrid
Procedure: Two-hybrid interaction between THAP1 mutants and Par4DD was tested by cotransformation of AH109 with pGBKT7-THAP1-C1, -C2, -C3, -N1, -N2 or -N3 and pGADT7-Par4DD and selection of transformants by His and Ade double auxotrophy according to manufacturer's instructions ([…] two-hybrid system 3, Clontech).
for mutant THAP1ΔQRCRR. The resulting PCR fragments were digested with EcoRI and BamHI, and cloned in frame downstream of the Gal4 Binding Domain (Gal4-BD) in pGBKT7 two-hybrid vector (Clontech) to generate pGBKT7-THAP1-RR/AA and −Δ(QRCRR), or downstream of the Enhanced Green Fluorescent Protein (EGFP) ORF in pEGFP.C2 vector (Clontech) to generate pEGFP.C2-THAP1-RR/AA and −Δ(QRCRR). THAP1 RR/AA and THAP1ΔQRCRR THAP1 mutants were then tested in the three THAP1/Par4 interaction assays (two-hybrid assay, in vitro THAP1/Par4 interaction assay, in vivo THAP1/Par4 interaction assay) as described above for the THAP1-C1, -C2, -C3, -N1, -N2 or -N3 mutants.

[2] = biological target: T2, GST-Par4DD fusion protein …; test: in vitro THAP1/Par4 interaction assay (GST pull-down with GST-Par4DD)
Procedure: THAP1 mutants were also tested in the in vitro THAP1/Par4 interaction assay. In vitro-translated THAP1 mutants were generated with the TNT-coupled reticulocyte lysate system (Promega, Madison, Wis., USA) using pGBKT7-THAP1-C1, -C2, -C3, -N1, -N2 or -N3 vector as template. 25 μl of each ³⁵S-labelled THAP1 mutant was incubated with immobilized GST or GST-Par4 protein overnight at 4° C., in the following binding buffer: 10 mM NaPO4 pH 8.0, 140 mM NaCl, 3 mM MgCl2, 1 mM dithiothreitol (DTT), 0.05% NP40, and 0.2 mM phenylmethyl sulphonyl fluoride (PMSF), 1 mM Na Vanadate, 50 mM β Glycerophosphate, 25 μg/ml chimotrypsine, 5 μg/ml aprotinin, 10 μg/ml Leupeptin. Beads were then washed 5 times in 1 ml binding buffer. Bound proteins were eluted with 2×Laemmli SDS-PAGE sample buffer, fractionated by 10% SDS-PAGE and visualized by fluorography using Amplify (Amersham Pharmacia Biotech). As expected, THAP1-C1, -C2, -C3, -and -N3 interacted with GST/Par4DD (FIG. 4B).
for mutant THAP1ΔQRCRR. The resulting PCR fragments were digested with EcoRI and BamHI, and cloned in frame downstream of the Gal4 Binding Domain (Gal4-BD) in pGBKT7 two-hybrid vector (Clontech) to generate pGBKT7-THAP1-RR/AA and −Δ(QRCRR), or downstream of the Enhanced Green Fluorescent Protein (EGFP) ORF in pEGFP.C2 vector (Clontech) to generate pEGFP.C2-THAP1-RR/AA and −Δ(QRCRR). […]

[3] = biological target: T3, THAP1-C1 deletion mutant (amino acids …); test: yeast two-hybrid, pGADT7-THAP1 mutant with pGBKT7-SLC/CCL21
Procedure: (§1) Two-hybrid interaction between THAP1 mutants and chemokine SLC/CCL21 was tested by cotransformation of AH109 with pGADT7-THAP1-C1, -C2, -C3, -N1, -N2 or -N3 and pGBKT7-SLC/CCL21 and selection of transformants by His and Ade double auxotrophy according to manufacturer's instructions ([…] two-hybrid system 3, Clontech). pGBKT7-SLC/CCL21 vector was generated by subcloning the BamHI SLC/CCL21 fragment from pGBT9-SLC (see example 1) into the unique BamHI cloning site of vector pGBKT7 (Clontech).

[4] = biological target: T4, THAP1-N2 deletion mutant (amino acids …); test: as above
Procedure: as §1

[5] = biological target: T5, THAP1-N3 deletion mutant (amino acids …); test: as above
Procedure: as §1

[6] = biological target: T7, Glutathione S-transferase (GST) control protein (pGEX-2T) (UniProt P08515 1-218 = GST); test: GST pull-down, immobilized GST control, in vitro translated 35S-labelled SLC/CCL21
T7 construct: Negative control immobilized on glutathione sepharose; also called GST beads; immobilized GST alone

[7] = biological target: T6, human THAP1 (THanatos …); test: yeast two-hybrid screen of the pGAD424-HEVEC cDNA library with pGBT9-SLC bait (His selection)
Description: In an effort to define the function of novel HEVEC proteins and the cellular pathways involved, we used different baits to screen a two-hybrid cDNA library generated from microvascular human HEV endothelial cells (HEVEC). HEVEC were purified from human tonsils by immunomagnetic selection with monoclonal antibody MECA-79 as previously described (Girard and Springer (1995) Immunity 2:113-123). The SMART PCR cDNA library Construction Kit (Clontech, Palo Alto, Calif., USA) was first used to generate full-length cDNAs from 1 μg HEVEC total RNA. Oligo-dT-primed HEVEC cDNA were then digested with SfiI and directionally cloned into pGAD424-Sfi, a two-hybrid vector generated by inserting a SfiI linker (5′-[…]-3′) (SEQ ID NO: 181) between EcoRI and BamHI cloning sites of pGAD424 (Clontech). The resulting pGAD424-HEVEC cDNA two-hybrid library (mean insert size>1 kb, ˜3×10⁶ independant clones) was amplified in E. coli. […]

T7 sequence (P08515 whole entry): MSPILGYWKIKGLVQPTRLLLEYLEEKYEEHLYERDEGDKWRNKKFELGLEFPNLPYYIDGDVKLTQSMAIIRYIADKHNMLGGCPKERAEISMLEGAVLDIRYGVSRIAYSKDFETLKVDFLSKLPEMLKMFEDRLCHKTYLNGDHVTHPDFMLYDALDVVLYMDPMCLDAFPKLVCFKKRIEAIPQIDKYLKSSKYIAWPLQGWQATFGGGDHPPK

Binder	binding result [1]	binding result [2]	binding result [3]	binding result [4]	binding result [5]	binding result [6]	binding result [7]
THAP1 RR/AA mutant (R171A, R172A) (other, Tested as a Gal4-BD fusion (pGBKT7), as in vitro translated protein and as an EGFP fusion; also called THAP RR/AA) MVQSCSAYGCKNRYDKDKPVSFHKFPLTRPSLCKEWEAAVRRKNFKPTKYSSICSEHFTPDCFKRECNNKLLKENAVPTIFLCTEPHDKKEDLLEPQEQLPPPPLPPPVSQVDAAIGLLMPPLQTPVNLSVFCDHNYTVEDTMHQRKRIHQLEQQVEKLRKKLKTAQQRCAAQERQLEKLKEVVHFQKEKDDVSERGYVILPNDYFEIVEVPA	no binding	no binding					
human chemokine SLC/CCL21, mature form (amino acids 24-134) (ligand, also called SLC/6Ckine; SLC/CCL21 wild type) SDGGAQDCCLKYSQRKIPAKVVRSYRKQEPSLGCSIPAILFLPRKRSQAELCADPKELWVQQLMQHLDKTPSPQKPAQGCRKDRGASKTGKKGKGSKGCKRTERSQTPKGP			binds	no binding	no binding	no binding	binds
